# From US20100285583A1, “COMPOUNDS AND METHODS FOR INHIBITING PLATELET AGGREGATION” (priority 2009, published 2010)
# B1: N-PTB: N-terminal phosphotyrosine binding domain (residues 1-241) of human Disabled-2 (Dab2), expressed as GST-fusion in E. coli (protein)
# chain: MSNEVETSATNGQPDQQAAPKAPSKKEKKKGPEKTDEYLLARFKGDGVKYKAKLIGIDDVPDARGDKMSQDSMMKLKGMAARGRSQGQHKQRIWVNISLSGIKIIDEKTGVIEHEHPVNKISFIARDVTDNRAFGYVCGGEGQHQFFAIKTGQQAEPLVVDLKDLFQVIYNVKKKEEEKKKIEEASKAVENGSEALMILDDQTNKLKSGVDQMDLFGDMSTPPDLNSPTESKDILLVDLNS
# Columns and labels:
# [1] = Surface plasmon resonance, immobilized sulfatide liposomes; settings: SPR, estimated; read-out: dissociation constant (KD), sulfatide binding
# Description: Surface plasmon resonance (SPR) binding experiments were performed on a BIAcore X instrument using L1 sensorchips coated with ˜0.5 mM of mixed sulfatides or PtdIns(4,5)P2 size calibrated liposomes. N-PTB domain or its mutants binding experiments were performed in a degassed solution containing 10 mM Tris-HCI (pH 7.4) and 150 mM NaCl. This buffer was used during equilibration, association and dissociation phases. Proteins were added to this buffer at the indicated concentrations. Regeneration of the phospholipid bilayer after dissociation phase was carried out using 20 mM NaOH. For competition SPR, increasing molar amounts of dioctanoyl PtdIns(4,5)P2 were preincubated with 5 μM N-PTB for 20 min at room temperature. The entire reaction was then exposed to an L1 sensorchip containing immobilized sulfatide liposomes (˜0.5 mM).
# [2] = tested on: platelet surface P-selectin; assay: Flow cytometry, platelet surface P-selectin; assay type: cell-based, human; settings: for inhibition of sulfatide induced activation (surface P-selectin): ADP 30 μM, sulfatide liposomes 50 μg/mL
# Description: Washed platelets (2.5×10^5 platelets/μL) were kept unactivated or either activated with ADP (30 μM) or TRAP (10 μM). Both unactivated and activated platelets were incubated for 10 min at 23° C. with liposomes (50 μg/mL) either without (liposomes control) or with sulfatides, and N-PTB constructs (1 μM). Reactions were fixed with 1% formalin and incubated with PE- labeled CD62p anti-P-selectin (BioLegend) or FITC-labeled PAC-1 anti-integrin receptor (BD Transduction) antibodies. Bound antibodies were quantified using a FacsAria flow cytometer.
# Once present, P-selectin is able to interact with sulfatides which triggers an internal phosphorylation pathway thought to be mediated by p38 (FIG. 12A) (Merten 2005). This cascade results in further de-granulation and an increase in surface P-selectin (Merten 2005). To monitor the de-granulation of platelets, two activation markers were evaluated using fluorescent antibodies specific for P-selectin and the αIIbβ3 integrin. Marker surface expression was quantified using fluorescence-activated cell sorting (FACS) analysis, and measuring the median fluorescent signal of 10,000 platelets. The median signal was used as our reference to quantify the data set as median values are less affected by the wide range of platelet signals and is therefore more representative of the population. When platelets were stimulated with ADP (30 μM) they show increases in both surface P-selecting and αIIbβ3 integrin expression. In the presence of sulfatides (50 μg/mL), in the form of enriched liposomes, the levels of P-selectin and αIIbβ3 integrin were further increased to about 20-25 fold their un-stimulated levels (FIG. 12B). […] The levels of P-selectin and αIIbβ3 integrin were measured among several different individuals and the levels varied greatly between them; however; consistently, sulfatides induced a ˜20 fold increase over un-stimulated platelets and a ˜10 fold increase over ADP stimulated platelets.
# [3] = tested on: platelet and leukocyte mixtures; assay: Platelet-leukocyte aggregation under flow; assay type: cell-based, human; settings: 10 μM, with sulfatide liposomes
# Description: The microfluidic device consisted in a simple straight channel 500 μm wide, 50 μm deep and 3.62 cm long. A silicon master stamp was fabricated on a <100> silicon substrate following a previously described process (Ross et al. Ann. Rev. Med. 1987, 38:71-79). Flow was driven using a micro-syringe pump (Cole-Parmer) with a 1 mL syringe connected to the channel inlet by 30 cm of Cole-Parmer gauge 20 Teflon tubing. After priming the system with the sample, the pump was set to 0.05 mL/h (equivalent to an average velocity of 0.55 mm/sec in the channel), which is in the range of in vivo blood velocity (0.1-1.5 mm/sec (9)) and causes a shear rate of 70 sec−1. This flow rate was maintained for 1 min prior to the experiments. Platelets flowing through the channel were monitored using an inverted light microscope (DMI 6000B, Leica Microsystems) equipped with a digital camera (DFC420, Leica Microsystems).
# To quantify the ability of N-PTB to block platelet-leukocyte binding under physiological flow conditions, platelet and leukocyte mixtures were flown through a microfluidics device, as described above, and aggregation was measured using light microscopy. Untreated cell suspensions ([…]) were flown for 10 minutes and the channel was scanned for leukocyte adhesion and inclusion into platelet aggregates and representative pictures were taken (FIG. 18A-B).
molecule,measurement,setting,value
B1,Kd,[1],~1930 nM
same,inhibition of sulfatide induced activation (surface P-selectin),[2],remained at ADP stimulated levels
same,inhibition of sulfatide induced activation (surface P-selectin),[2]; listed as N-PTB^4M,no inhibition of sulfatide induced activation
same,IC50,"[2]; titration 1 nM-1 μM, ADP stimulated platelets, logarithmic curve fit, read-out: IC50, inhibition of sulfatide induced P-selectin marker expression",121 nM
same,effect on leukocyte adhesion and platelet-leukocyte aggregates under flow,[3],great reduction in observed leukocyte adhesion as well as platelet-leukocyte aggregates
same,effect on leukocyte adhesion and platelet-leukocyte aggregates under flow,[3]; listed as N-PTB^4M,unable to affect the adhesion and aggregation of leukocytes
